# US20070031511A1 (published 2007)
# [ ]: non-standard residue; d: D form. pGlu = O=C1CC[C@@H](C(=O)O)N1
# T1: human CCK-2 receptor (human, UniProt P32239 1-447)
# T1 sequence (looked up): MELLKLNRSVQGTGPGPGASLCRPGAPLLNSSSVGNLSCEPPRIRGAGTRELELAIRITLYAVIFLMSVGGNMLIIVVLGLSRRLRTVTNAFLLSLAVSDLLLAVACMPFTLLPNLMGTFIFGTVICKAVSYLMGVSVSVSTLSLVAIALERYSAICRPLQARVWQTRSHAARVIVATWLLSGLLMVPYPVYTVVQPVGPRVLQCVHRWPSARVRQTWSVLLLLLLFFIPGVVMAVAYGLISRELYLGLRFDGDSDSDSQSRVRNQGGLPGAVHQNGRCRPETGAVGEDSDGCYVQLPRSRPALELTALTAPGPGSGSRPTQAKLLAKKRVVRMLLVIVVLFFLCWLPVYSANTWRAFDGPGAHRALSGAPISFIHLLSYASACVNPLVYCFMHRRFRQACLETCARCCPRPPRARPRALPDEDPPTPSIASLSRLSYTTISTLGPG
# Tests used:
# human CCK-2 receptor [1] = molecular target: T1, human CCK-2 receptor; experiment: cell-based or functional assay
# human CCK-2 receptor [2] = molecular target: T1, human CCK-2 receptor; experiment: fitted [125I]-BH-CCK8 binding without competitor, displacement curve, Jurkat cells
# Description: (§1) Non-specific binding was evaluated with […] of unlabelled CCK₈. Incubation was stopped by adding 2 ml of ice-cold PBS containing 2% bovine serum albumin. After centrifugation, supernatants were removed and the radioactivity bound to the cell membranes was measured in a γ-counter (LKB, Wallac, Finland).
# (§2) Values of the % maximum binding in the absence of competitor and of the IC₅₀ were obtained from the data presented in FIG. 21 by least squares fitting with the program Sigmaplot. Values from the indicated number of independent experiments were combined to obtain the mean values (±S.E.) presented above. Data were analyzed by one-way analysis of variance.
# human CCK-2 receptor [3] = molecular target: T1, human CCK-2 receptor; experiment: fitted [125I]-BH-CCK8 binding without competitor, displacement curve, CCK-2 receptor on transfected COS-7 cells
# Description: as §2
# human CCK-2 receptor [4] = molecular target: T1, human CCK-2 receptor; experiment: displacement of [125I]-BH-CCK8, CCK-2 receptor on Jurkat cells
# Description: as §1, §2
# human CCK-2 receptor [5] = molecular target: T1, human CCK-2 receptor; experiment: displacement of [125I]-BH-CCK8, CCK-2 receptor on transiently transfected COS-7 cells
# Description: as §2
# human CCK-2 receptor [6] = molecular target: T1, human CCK-2 receptor; experiment: single experiment of FIG. 21, displacement of [125I]-BH-CCK8, transfected COS-7 cells
# Source text: The lines of best fit shown in FIG. 21 were obtained by nonlinear regression to a single site model with the program Sigmaplot.
# human CCK-2 receptor [7] = molecular target: T1, human CCK-2 receptor; experiment: displacement of [125I]-BH-CCK8, transfected COS-7 cells; reference Gamide
# human CCK-2 receptor [8] = molecular target: T1, human CCK-2 receptor; experiment: displacement of [125I]-BH-CCK8, Jurkat cells; reference Gamide
# [9] = molecular target: Ggly receptor on IMGE-5 cells; experiment: cell-based or functional assay
% Maximum Binding (human CCK-2 receptor [2]),% Maximum Binding (human CCK-2 receptor [3]),"ED50 (nM), proliferation of IMGE cells, thymidine uptake [9]",Binder,other results
,,1 nM,LEEEEEAYG [nonapeptide LE5AYG],
,,2.4 nM,LEEEEEA [heptapeptide LE5A],
,,0.9 nM,LEEEEE [hexapeptide LE5],
,,0.5 nM,EEEEEA [hexapeptide E5A],

# Continued, binder first:
Binder,% Maximum Binding (human CCK-2 receptor [2]),% Maximum Binding (human CCK-2 receptor [3]),"ED50 (nM), proliferation of IMGE cells, thymidine uptake [9]",other results
"XGPWLEEEEEAYGWMDF (N-terminal pyroglutamate (Z); C-terminal phenylalanine amide, Synthetic peptide bought from Bachem; Also tested with 1 uM DFO or with 8 moles Bi3+ per mole; also called G17) [amidated gastrin17 (Gamide)]",100%,94.2%,,inositol phosphate turnover (human CCK-2 receptor [1]): 4 fold
"[pGlu]GPWLEAEEEAYGWMDF-NH2 (ends and bridges not checked, Gamide mutant with Glu7 replaced by Ala; Synthesised by Auspep) [GamideE7A]",96.7%,92%,,IC50 (human CCK-2 receptor [4]): 3.1 nM; IC50 (human CCK-2 receptor [5]): 37 nM; IC50 (human CCK-2 receptor [6]): 25.1 nM; ratio IC50 GamideE7A/IC50 Gamide (human CCK-2 receptor [7]): 1.4; ratio IC50 GamideE7A/IC50 Gamide (human CCK-2 receptor [8]): 2.4
EEEEEAY [heptapeptide E5AY],,,1.1 nM,
"[pGlu]GPWLEEAAEAYGWMDF-NH2 (ends and bridges not checked, Gamide mutant with Glu8 and Glu9 replaced by Ala; Synthesised by Auspep) [GamideE8,9A]",97.8%,98.4%,,"IC50 (human CCK-2 receptor [4]): 2.8 nM; IC50 (human CCK-2 receptor [5]): 112 nM; IC50 (human CCK-2 receptor [6]): 58.2 nM; ratio IC50 GamideE8,9A/IC50 Gamide (human CCK-2 receptor [7]): 4.1; ratio IC50 GamideE8,9A/IC50 Gamide (human CCK-2 receptor [8]): 2.2"
